Data as given in patent US20260250398A1.

Molecular target: FZD1/2/4/5/7/8
Assay: cell-based or functional assay

Row | TOPFLASH Maximal Signal (% Wnt3a maxima) (% Wnt3a maxima) | TOPFLASH EC50 | TOPFLASH % Wnt Maxima | Binder
1 | 22 | – | – | CH3 (Dia-CH3-Dia; paratopes 5019; 2539) (bispecific antibody) MNLLLILTFVAAAVAEFEVQLVESGGGLVQPGGSLRLSCAASGFNIGSSSIHWVRQAPGKGLEWVASIYSAFASTSYADSVKGRFTISADTSKNTAYLQMNSLRAEDTAVYYCARYHFPFGFALDYWGQGTLVTVSSGGGGSDIQMTQSPSSLSASVGDRVTITCRASQSVSSAVAWYQQKPGKAPKLLIYSASSLYSGVPSRFSGSRSGTDFTLTISSLQPEDFATYYCQQGVYLFTFGQGTKVEIKDKTHTKVEPKTSDKTHTCPPCPGQPREPQVYTLPPSREEMTKNQVSLTCLVKGFYPSDIAVEWESNGQPENNYKTTPPVLDSDGSFFLYSKLTVDKSRWQQGNVFSCSVMHEALHNHYTQKSLSLSPGKGTTAASGSSGGSSSGAGRTEVQLVESGGGLVQPGGSLRLSCAASGFNISYSSIHWVRQAPGKGLEWVAYISSYYGYTYYADSVKGRFTISADTSKNTAYLQMNSLRAEDTAVYYCARAHYFPWAGAMDYWGQGTLVTVSSGGGGSDIQMTQSPSSLSASVGDRVTITCRASQSVSSAVAWYQQKPGKAPKLLIYSASSLYSGVPSRFSGSRSGTDFTLTISSLQPEDFATYYCQQYSWGPFTFGQGTKVEIK
2 | 42 | 0.4 nM | – | Fab-Dia (paratopes 5016; 2540/2542) (bispecific antibody) heavy: EVQLVESGGGLVQPGGSLRLSCAASGFNIHSSSIHWVRQAPGKGLEWVAATYSSFGSITYADSVKGRFTISADTSKNTAYLQMNSLRAEDTAVYYCARYHHPFGYALDYWGQGTLVTVSSASTKGPSVFPLAPSSKSTSGGTAALGCLVKDYFPEPVTVSWNSGALTSGVHTFPAVLQSSGLYSLSSVVTVPSSSLGTQTYICNVNHKPSNTKVDKKVEPKSCDKTHTGGSGGEVQLVESGGGLVQPGGSLRLSCAASGFTISYSSIHWVRQAPGKGLEWVASISPYYGYTYYADSVKGRFTISADTSKNTAYLQMNSLRAEDTAVYYCARSSYFPWFSAMDYWGQGTLVTVSSGGGGSDIQMTQSPSSLSASVGDRVTITCRASQSVSSAVAWYQQKPGKAPKLLIYSASSLYSGVPSRFSGSRSGTDFTLTISSLQPEDFATYYCQQYYWPITFGQGTKVEIK light: DIQMTQSPSSLSASVGDRVTITCRASQSVSSAVAWYQQKPGKAPKLLIYSASSLYSGVPSRFSGSRSGTDFTLTISSLQPEDFATYYCQQGVYLFTFGQGTKVEIKRTVAAPSVFIFPPSDEQLKSGTASVVCLLNNFYPREAKVQWKVDNALQSGNSQESVTEQDSKDSTYSLSSTLTLSKADYEKHKVYACEVTHQGLSSPVTKSFNRGECGGGGSEVQLVESGGGLVQPGGSLRLSCAASGFTISSYYIHWVRQAPGKGLEWVASIYSSYGYTSYADSVKGRFTISADTSKNTAYLQMNSLRAEDTAVYYCARTVRGSKKPYFSGWAMDYWGQGTLVTVSSGGGGSDIQMTQSPSSLSASVGDRVTITCRASQSVSSAVAWYQQKPGKAPKLLIYSASSLYSGVPSRFSGSRSGTDFTLTISSLQPEDFATYYCQQYYFLITFGQGTKVEIK
3 | – | 0.4 nM | 42 % Wnt Maxima | CT0003 (Table 5: FZD Diabody-Fc-LRP scFv; paratopes 5016; 2539, 2542) (bispecific antibody) chain 1: MNLLLILTFVAAAVAEFEVQLVESGGGLVQPGGSLRLSCAASGFNISSYYIHWVRQAPGKGLEWVASIYSSYGYTSYADSVKGRFTISADTSKNTAYLQMNSLRAEDTAVYYCARTVRGSKKPYFSGWAMDYWGQGTLVTVSSGGGGSDIQMTQSPSSLSASVGDRVTITCRASQSVSSAVAWYQQKPGKAPKLLIYSASSLYSGVPSRFSGSRSGTDFTLTISSLQPEDFATYYCQQYSWGPFTFGQGTKVEIKLEDKTHTKVEPKSSDKTHNCPPCPAPELLGGPSVFLFPPKPKDTLMISRTPEVTCVVVDVSHEDPEVKFNWYVDGVEVHNAKTKPREEQYNSTYRVVSVLTVLHQDWLNGKEYKCKVSNKALPAPIEKTISKAKGQPREPQVYTLPPIRELMTSNQVSLSCAVKGFYPSDIAVEWESNGQPENNYKTTPPVLDSDGSFFLVSKLTVDKSRWQQGNVFSCSVMHEALHNHYTQKSLSLSPGKSGSETPGTSESATPESGGGEVQLVESGGGLVQPGGSLRLSCAASGFNIHSSSIHWVRQAPGKGLEWVAATYSSFGSITYADSVKGRFTISADTSKNTAYLQMNSLRAEDTAVYYCARYHHPFGYALDYWGQGTLVTVSSGTTAASGSSGGSSSGADIQMTQSPSSLSASVGDRVTITCRASQSVSSAVAWYQQKPGKAPKLLIYSASSLYSGVPSRFSGSRSGTDFTLTISSLQPEDFATYYCQQGVYLFTFGQGTKVEIK chain 2: MNLLLILTFVAAAVAEFEVQLVESGGGLVQPGGSLRLSCAASGFNISYSSIHWVRQAPGKGLEWVAYISSYYGYTYYADSVKGRFTISADTSKNTAYLQMNSLRAEDTAVYYCARAHYFPWAGAMDYWGQGTLVTVSSGGGGDIQMTQSPSSLSASVGDRVTITCRASQSVSSAVAWYQQKPGKAPKLLIYSASSLYSGVPSRFSGSRSGTDFTLTISSLQPEDFATYYCQQYYWPITFGQGTKVEIKLEDKTHTKVEPKTSDKTHTCPPCPAPELLGGPSVFLFPPKPKDTLMISRTPEVTCVVVDVSHEDPEVKFNWYVDGVEVHNAKTKPREEQYNSTYRVVSVLTVLHQDWLNGKEYKCKVSNKALPAPIEKTISKAKGQPREPMVFDLPPSREEMTKNQVSLWCMVKGFYPSDIAVEWESNGQPENNYKTTPPVLDSDGSFFLYSKLTVDKSRWQQGNVFSCSVMHEALHNHYTQKSLSLSPGKSGSETPGTSESATPESGGGEVQLVESGGGLVQPGGSLRLSCAASGFNIHSSSIHWVRQAPGKGLEWVAATYSSFGSITYADSVKGRFTISADTSKNTAYLQMNSLRAEDTAVYYCARYHHPFGYALDYWGQGTLVTVSSGTTAASGSSGGSSSGADIQMTQSPSSLSASVGDRVTITCRASQSVSSAVAWYQQKPGKAPKLLIYSASSLYSGVPSRFSGSRSGTDFTLTISSLQPEDFATYYCQQGVYLFTFGQGTKVEIK
